Assay results reported in patent US20190367619A1 (ARGENX, published 2019).

T1: TEV-cleaved wild-type recombinant human galectin-10 (soluble, in Fab complexes, or as recombinant galectin-10 … (human, UniProt Q05315 1-142))
T1 sequence: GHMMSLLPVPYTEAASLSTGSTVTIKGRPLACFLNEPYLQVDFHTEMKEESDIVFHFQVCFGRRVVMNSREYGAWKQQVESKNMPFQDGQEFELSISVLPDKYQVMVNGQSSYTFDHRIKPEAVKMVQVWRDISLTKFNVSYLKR

T2: human galectin-10-His (recombinant human galectin-10 with TEV-cleavable N-terminal His-tag) (human)
T2 construct: SEC-MALLS: dimer in solution; also called Gal10-His; humanGal10-His
T2 chain: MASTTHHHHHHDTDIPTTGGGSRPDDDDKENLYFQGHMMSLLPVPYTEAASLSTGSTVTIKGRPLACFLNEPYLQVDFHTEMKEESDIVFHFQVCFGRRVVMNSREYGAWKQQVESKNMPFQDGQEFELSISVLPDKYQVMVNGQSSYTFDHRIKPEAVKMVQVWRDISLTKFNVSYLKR

T3: recombinant human galectin-10, TEV-cleaved (human, UniProt Q05315 1-142)
T3 sequence: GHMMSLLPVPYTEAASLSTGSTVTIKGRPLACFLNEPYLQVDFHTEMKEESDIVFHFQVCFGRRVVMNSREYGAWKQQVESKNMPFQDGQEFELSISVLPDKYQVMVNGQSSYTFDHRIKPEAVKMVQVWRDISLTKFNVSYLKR

T4: human galectin-10-His (human)
T4 construct: The last M of the tag may be Met1 of galectin-10; also called humanGal10-His; hGal10
T4 chain: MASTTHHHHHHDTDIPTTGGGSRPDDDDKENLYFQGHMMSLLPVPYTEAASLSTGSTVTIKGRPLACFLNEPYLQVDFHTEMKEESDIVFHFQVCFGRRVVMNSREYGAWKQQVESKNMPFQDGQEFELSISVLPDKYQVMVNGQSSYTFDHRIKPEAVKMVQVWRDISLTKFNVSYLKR

T5: cynomolgus galectin-10-His, WGS isoform (cynomolgus)
T5 construct: also called cynoGal10-WGS; not shown: His tag
T5 chain: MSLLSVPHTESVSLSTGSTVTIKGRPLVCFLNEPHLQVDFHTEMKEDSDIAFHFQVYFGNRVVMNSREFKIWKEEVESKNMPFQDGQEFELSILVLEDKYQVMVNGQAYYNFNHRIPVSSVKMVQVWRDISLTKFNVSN

T6: cynomolgus galectin-10-His, YRT isoform (cynomolgus)
T6 construct: also called cynoGal10-YRT; not shown: His tag
T6 chain: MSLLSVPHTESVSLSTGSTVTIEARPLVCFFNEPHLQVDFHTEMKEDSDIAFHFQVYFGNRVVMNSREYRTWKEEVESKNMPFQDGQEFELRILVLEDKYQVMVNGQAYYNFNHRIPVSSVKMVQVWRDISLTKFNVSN


Legend:
[1] = target: T1, TEV-cleaved wild-type recombinant human …; experiment: cell-based or functional assay
[2] = target: T2, human galectin-10-His (recombinant …); experiment: ELISA, mouse IgG1 on coated galectin-10-His (0.2 ug/mL)
Protocol: In a similar setup to that used during the characterization of the scFv-human Fc molecules, the relative binding affinities of the 10 mouse IgG1 antibodies were analyzed by ELISA. A Maxisorp plate was coated overnight with 0.2 μg/mL of galectin-10-His. Then a serial dilution of each clone (from 100 nM, dilution 1/4, 12 points of dilutions) was incubated on coated galectin-10. After several washing steps, detection of the bound mouse IgG1 was carried out with an anti-mouse Fc-HRP antibody. Absorbance was measured at 450 nm (reference at 620 nm) with Tecan instrument. A mouse IgG1 isotype control was used as negative control. A polyclonal anti-galectin-10 antibody was used as positive control for the coating of galectin-10. The raw data (OD values) were plotted on GraphPad Prism 7.01. The EC50 values for each antibody, calculated with a non-linear regression (log(agonist) vs. response Variable slope (four parameters)), are reported in Table 7 below.

[3] = target: T2, human galectin-10-His (recombinant …); experiment: BLI tandem on galectin-10-His; competitor: saturating 1C09 mIgG1 (10 ug/mL)
Protocol: (§1) In order to identify the galectin-10 binding sites of the different clones, an epitope mapping method (TANDEM), using the BLI technology, was established. Briefly, the galectin-10-His was captured on anti-HIS 1K sensor tips, before incubation with an excess of one antibody (called the “saturating” antibody) then directly transferred to a solution containing the “competitor” antibody at a suboptimal concentration. If the “saturating” and the competitor antibody bind to the same binding sites, no binding of “competitor” will be detected (expressed in nm shift).

[4] = target: T2, human galectin-10-His (recombinant …); experiment: BLI tandem on galectin-10-His; competitor: saturating 1D11 mIgG1 (10 ug/mL)
Protocol: as §1

[5] = target: T2, human galectin-10-His (recombinant …); experiment: BLI tandem on galectin-10-His; competitor: saturating 2C07 mIgG1 (10 ug/mL)
Protocol: as §1

[6] = target: T2, human galectin-10-His (recombinant …); experiment: BLI tandem on galectin-10-His; competitor: saturating 2F09 mIgG1 (10 ug/mL)
Protocol: as §1

[7] = target: T2, human galectin-10-His (recombinant …); experiment: BLI tandem on galectin-10-His; competitor: saturating 4E08 mIgG1 (10 ug/mL)
Protocol: as §1

[8] = target: T2, human galectin-10-His (recombinant …); experiment: BLI tandem on galectin-10-His; competitor: saturating 6A05 mIgG1 (10 ug/mL)
Protocol: as §1

[9] = target: T2, human galectin-10-His (recombinant …); experiment: BLI tandem on galectin-10-His; competitor: saturating 6A08 mIgG1 (10 ug/mL)
Protocol: as §1

[10] = target: T2, human galectin-10-His (recombinant …); experiment: BLI tandem on galectin-10-His; competitor: saturating 6B06 mIgG1 (10 ug/mL)
Protocol: as §1

[11] = target: T2, human galectin-10-His (recombinant …); experiment: BLI tandem on galectin-10-His; competitor: saturating 6E10 mIgG1 (10 ug/mL)
Protocol: as §1

[12] = target: T2, human galectin-10-His (recombinant …); experiment: BLI tandem on galectin-10-His; competitor: saturating 6F06 mIgG1 (10 ug/mL)
Protocol: as §1

[13] = target: T2, human galectin-10-His (recombinant …); experiment: BLI tandem on galectin-10-His; isotype control as saturating antibody (10 ug/mL)
Protocol: as §1

[14] = target: T2, human galectin-10-His (recombinant …); experiment: SPR Biacore T3000, mouse IgG1 captured by anti-mouse Fc, galectin-10-His as analyte
Protocol: The binding capacity of the mouse IgG1 antibodies to galectin-10 was analyzed on Biacore T3000. For this purpose, a capture approach was set up. A CM5 Chip was coated with polyclonal anti-mouse Fc at 8000 RU, then a fixed concentration of the mouse IgG1 antibody panel (1.5 μg/mL), diluted in HBS-EP pH7.4, was captured to reach a binding signal around 150 RU. Finally, a serial dilution of galectin-10-His (serial dilution, 1 over 2 from 5 μg/mL) diluted in HBS-EP pH7.4 was injected. Raw data were analyzed via BIA evaluation software with a blank subtraction (4-3). The kd/KD and Rmax of each mAb to galectin-10-His was determined using the Fit Kinetics simultaneous ka/kd/Binding with mass transfer/Local Rmax on BIA evaluation software.

[15] = target: T3, recombinant human galectin-10, …; experiment: cell-based or functional assay
human galectin-10-His [16] = target: T4, human galectin-10-His; experiment: ELISA, coated antigen 0.5 ug/mL
Protocol: (§2) In a similar setup to that used during the characterization of the scFv-human Fc molecules, the relative binding properties of the 7 mouse IgG1 antibodies were analyzed by ELISA. A Maxisorp plate was coated overnight with 0.5 μg/mL of human or cynomolgus WGS or YRT isoform of galectin-10-His. Then a serial dilution of each clone (from 100 nM, dilution 1/4, 12 points of dilutions) was incubated on coated galectin-10. After several washing steps, detection of the bound mouse IgG1 was carried out with an anti-mouse Fc-HRP antibody (DAMPO, Jackson ImmunoResearch, Catalog 715-035-150). Absorbance was measured at 450 nm (reference at 620 nm) with Tecan instrument. The raw data (OD values) were plotted on GraphPad Prism 7.01. The EC50 values for each antibody, calculated with a non-linear regression (log(agonist) vs. response Variable slope (four parameters)), are shown in the table below. Antibody 1D11 from the previous panel was included for comparison.

[17] = target: T5, cynomolgus galectin-10-His, WGS isoform; experiment: ELISA, coated antigen 0.5 ug/mL
Protocol: as §2

[18] = target: T6, cynomolgus galectin-10-His, YRT isoform; experiment: ELISA, coated antigen 0.5 ug/mL
Protocol: as §2

human galectin-10-His [19] = target: T4, human galectin-10-His; experiment: SPR Biacore T3000, mouse IgG1 captured
Protocol: (§3) The binding capacity of the mouse IgG1 antibody panel to galectin-10 was analysed on Biacore T3000. For this purpose, a capture approach was used, where a fixed concentration (1.5 μg/mL) of the mouse IgG1 clone was captured by polyclonal anti-mouse Fc antibodies immobilized on CM5 Chip to reach a binding signal around 150 RU. Then a serial dilution of human and cynomolgus WGS isoform of galectin-10-His (serial dilution, 1 over 2 from 5 μg/mL) diluted in HBS-EP pH7.4 was injected. Raw data were analysed via BIA evaluation software with a blank subtraction. The kd/KD and Rmax of each mAbs to galectin-10-His was determined using the Fit Kinetics simultaneous ka/kd/Binding with mass transfer/Local Rmax on BIA evaluation software.

[20] = target: T5, cynomolgus galectin-10-His, WGS isoform; experiment: SPR Biacore T3000, mouse IgG1 captured
Protocol: as §3

[21] = target: T3, recombinant human galectin-10, …; experiment: cell-based or functional assay; remark: listed apart in the source

Binder	50% dissolution (min) of CLCs, antibody 50 uM [15] [min]	90% dissolution (min) of CLCs, antibody 50 uM [15] [min]	EC50 (human galectin-10-His [16]) [nM]	OD values (human galectin-10-His [16]) [OD]	OD values [18] [OD]	Kd (human galectin-10-His [19]) [nM]	koff (human galectin-10-His [19]) [s⁻¹]	kon (human galectin-10-His [19]) [M⁻¹ s⁻¹]	50% crystal dissolution (min), 50 uM [21] [min]	90% crystal dissolution (min), 50 uM [21] [min]	EC50 [18] [nM]	other results
6A05 mouse IgG1 (antibody, V domains shown, also called 6A05 mIgG1) VH: EVQLVESGGGLVQPGGSLRLSCAASGFTFSSYAMSWVRQAPGKGLEWVSAINSGGGWTSYVDSVKGRFTISRDNAKNTLYLQMDSLKPEDTAVYYCTKYSGPELNTQYGMDYWGKGTLVTVSS VL: NFMLTQPSAVSVSLGQTARITCQGGNFGSYYASWYQQKPGQAPVLVIYRDSGRPSGIPERFSGSSSGDTATLTISGAQAEDEADYYCQSGSSSDNTVFGGGTHLTVL	–	–	–	–	–	–	–	–	–	–	–	100% Solubilization of CLC (Conc uM) [1]: 10.1 µM; Bmax [2]: 1.74 OD; EC50 [2]: 0.07 nM; binding signal (nm) [3]: 0 nm; binding signal (nm) [4]: 0.04 nm; binding signal (nm) [5]: 0.01 nm; binding signal (nm) [6]: 0.01 nm; binding signal (nm) [7]: -0.03 nm; binding signal (nm) [8]: 0.05 nm; binding signal (nm) [9]: 0 nm; binding signal (nm) [10]: 0 nm; binding signal (nm) [11]: -0.03 nm; binding signal (nm) [12]: 0.02 nm; binding signal (nm) [13]: 1.02 nm; Kd [14]: 0.6 nM; koff [14]: 0.00483 s⁻¹
10D02 mouse IgG1 (antibody, V domains shown, VH and VL cloned in frame with mouse IgG1 constant domains; also called 10D02 mIgG1) VH: EVQLVESGGGLVQPGGSLRVSCAASGFTFSSYYMSWVRQAPGKGLEWVSGIVTGGGRTHYTDSVKGRFTITRDNAKNTLYLQMNSLRPEDTALYYCARVNGVVTNYDYWGQGTQVTVSS VL: QAVLTQPPSVSGSPGKTVTISCAGTSSDVGYGNYVSWYQQLPGMAPKLLIYDVNKRASGITDRFSGSKSGNTASLTISGLQSEDEADYFCASYRSPNNVVFGQGTHLTVL	26.5	58.6	3.55	2.7	2.63	1.6	0.000865	547000	–	–	–	EC50 [17]: 0.14 nM; OD values [17]: 3.51 OD; Kd [20]: 1.9 nM; koff [20]: 0.000912 s⁻¹; kon [20]: 477000 M⁻¹ s⁻¹
10A06 mouse IgG1 (antibody, V domains shown, VH and VL cloned in frame with mouse IgG1 constant domains; also called 10A06 mIgG1) VH: QVQLVESGGGLVQPGGSLRLSCAASGFTFGNYDMSWVRQAPGKGPEWVSDINSGGGSTYYADSVKGRFTISRDNAKNSLLLQMNSLKPEDTAVYYCATGYTGYYYWGQGTQVTVSS VL: QTVVTQEPSLSVSPGGTVTLTCGLSSGSVTSSNYPAWYQQTPGQAPRALIYSINSRHSGVPDRFSGSISGNKAALTITGAQAEDEADYYCTLYMGTGSNNVVFGGGTHLTVL	44.5	86.6	0.63	0.3	3.38	0.9	0.0101	1.17e+07	> 120	> 120	0.06	–
11F12 mouse IgG1 (antibody, V domains shown, VH and VL cloned in frame with mouse IgG1 constant domains; also called 11F12 mIgG1) VH: QVQLQESGGGLVQPGGSLRLSCAASGFTFSTNYMNWVRQAPGKGLEWVSGITSGGGRTYYADSVKGRFTISRDNAKNTLYLQMNSLKPEDTALYYCARTDHAWLDAWGQGTLVTVSS VL: HSAVTQPPSVSGTLGKTVTISCAGTSSDVGYGNYVSWYQHLPGTAPKLLIYAVSTRASGVPDRFSGSKSGNTASLTISGLQSEDEGDYYCASYSVRNNVVFGGGTRLTVL	21.3	42.6	4.83	2.7	3.35	0.7	0.00224	3.04e+06	65.4	> 120	0.21	–
